Substitutions are numbered along the chain they refer to.
B1: 3B5, humanized anti-CD40 mAb, IgG1 isotype (antibody, V domains shown)
VH: EVQLVESGGGLIQPGGSLRLSCAVSGFSLSTYAVSWVRQAPGKGLEWVGIIDSGGGTAYASWVKGRFTISRDNSKNTLYLQMNSLRAEDTAVYYCARGVTFFGLWGQGTLVTVSS
VL: DIVMTQSPSTLSASVGDRVTITCQASQSISNYLSWYQQKPGKAPKLLIYRASDLASGVPSRFSGSGSGTEFTLTISSLQPDDFATYYCQAYYYSGGGSYDYAFGGGTKVEIK
notes: also called HZD_3B5; 3B5 antibody
B2: 2E3 rabbit-human chimeric anti-CD40 antibody (antibody, V domains shown)
VH: QSVEESGGRLVTPGTPLTLTCTVSGFSLSTYAMSWVRQAPGKGLEWIGIIDGSSFTVYANWAKGRFTISKTSTTVDLKMTSLTASDTATYFCARGATFFGLWGPGTLVTVSS
VL: DVVMTQTPASVSAAVGGTVTIKCQASQSISGVLAWYQQKPGQPPKLLIYRAADLASGVPSRFKGSGSGTEFTLTINDLECDDAATYYCQSYYYSNSGSYSYAFGGGTEVVVK
notes: tested as cell culture supernatant
B3: 198 rabbit-human chimeric anti-CD40 antibody (antibody, V domains shown)
VH: QSVKESEGGLFKPTDTLTLTCTVSGFSLGSYTMAWVRQAPGNGLEYIGTIDSSGSADYASWAQSRSTITRNTNLNTVTLKMTSLTAADTATYFCARPTNYEYTWALNIWGPGTLVTVSS
VL: DVVMTQTPASVSEPVGGTVTIKCQASQTIYSYLAWYQQKPGQPPKLLIYGASKLASGVPSRFSGSRSGTEFTLTISDLECADAATYYCQCTGYDSAYVYNDFGGGTEVVVK
notes: as for B2
B4: 196 rabbit-human chimeric anti-CD40 antibody (antibody, V domains shown)
VH: QSVEESGGRLVTPGTPLTLTCTVSGFSLSAYAIHWVRQAPGKGLEYIGIIDAGGNIVYATWALGRFTISKTSTTVDLKITSPTTEDTATYFCGRGLSSYSNSAMDLWGPGTLVTVSS
VL: DVVMTQTPASVSEPVGGTVTMKCQASQNIYTYLAWYQQKPGRPPKLLIYQASTLASGVSSRFSGSGSGTEFTLTISDLECADAATYYCQSTAGNAYNAFGGGTEVVVK
notes: as for B2
B5: 5D10 rabbit-human chimeric anti-CD40 antibody (antibody, V domains shown)
VH: QSVEESGGRLVTPGTPLTLTCTVSGFSFYDHTMIWVRQAPGKGLEYIGFINIGGRAYYASWAKGRFTISRTSTTVDLEMTSLTTEDTATYFCARGDTHGYSYPEIWGPGTLVTVSS
VL: DIVMTQTPASVEAGVGGTVTIKCQASQTIYSYLSWYQQKPGQPPKLLIYRASTLASGVPSRFRGSGSGTEFTLTISDLECADAAAYYCQNYYDSTSSNAFGKGTEVVVK
notes: as for B2
B6: 3E12 rabbit-human chimeric anti-CD40 antibody (antibody, V domains shown)
VH: QSVKESEGGLFKPTDTLTLTCTVSGFSFSNYRMIWVRQAPGNGLEWIGVIDRNDNTYYATWAKSRSTITRNTNLNTVTLKMTSLTAADTATYFCARDTDYTTGGIWGPGTLVTVSS
VL: DIVMTQTPASVSAAVGGTVTIKCQASQNIGDNLAWHQQKPGQPPKLLIYGASTLASGVPSRFKGSGSRTEYTLTISDLECADAATYYCQSNYYSTSSSYYNSFGGGTEVVVK
notes: as for B2
B7: 4B7 rabbit-human chimeric anti-CD40 antibody (antibody, V domains shown)
VH: B6 VH with S27T, F28L, M33V, V49G, N53S, D54A, N55V, T56A, T60S, T102S
VL: DIVMTQTPSSVSAAVGGTVTIKCQASQNIGGNLAWYQQKPGQPPKLLIYGSSTLESGVPSRFSGSGSGTEYTLTISDLQCADAATYYCQSNYWSRSSSYVNSFGGGTEVVVK
notes: as for B2
B8: 5F9 rabbit-human chimeric anti-CD40 antibody (antibody, V domains shown)
VH: QSVEESGGRLVTPGTPLTLTCTASGFSLIGYVMGWFRQAPGKGLEYIGWISFGGDPYYASWVKGRFTISKTSTTVDLKMTSLTTEDTATYFCARSTYGDIWGPGTLVTVSS
VL: DIVMTQTPASVEAAVGGTVTIKCQASQSISSRLAWYQLKPGQPPKLLIYSASTLASGVPSRFKGSGSGTEFTLTISDLECADAATYYCQNHGYATSESYTNTFGGGTEVVVK
notes: tested as cell culture supernatant in the ELISA
B9: 197 rabbit-human chimeric anti-CD40 antibody (antibody, V domains shown)
VH: QEQLKESGGGLVTPGTALTLTCTASGSDISSYAMNWVRQAPGKGLEYIGVITSSGTIYYANWATGRFTISKASSTTVDLKTTRLTTEDTATYFCARGITGAVTTGLSLWGPGTLVTVSS
VL: DVVMTQTPPSVSEPVGGTVTIKCQASQNIYNNLAWYQQTPGQPPKLLGYAASNLASGVSSRFSGSGYGTEFTLTISDLECADAATYYCLGGYYGNNVGNTFGGGTEVVVK
notes: as for B2
B10: 192 rabbit-human chimeric anti-CD40 antibody (antibody, V domains shown)
VH: QSVEESGGRLVTPGTPLTLTCTVSGFSLSSYAMNWVRQAPGKGLEYTGMIATGGKTFYAGWAEGRFTISKTSTTVDLHIASLTTEDTATYYCARGYVGDIYFGFWGPGTLVTVSS
VL: AVLTQTPSPVSAGVGGTVTISCQSSKSVYYNTHLSWFQQKPGQPPKLLIYRASTLASGVPSRFKGSGSGTQFTLTISDVQCDDAATYYCAGGYANDVDNGFGGGTEVVVK
notes: as for B2
B11: 195 rabbit-human chimeric anti-CD40 antibody (antibody, V domains shown)
VH: B10 VH with T47I
VL: B10 VL with S35P
notes: as for B2
B12: 194 rabbit-human chimeric anti-CD40 antibody (antibody, V domains shown)
VH: QSVEESGGRLVTPGTPLTLTCTVSGFSLSSYAMSWVRQAPGKGLEYIGVMNTGGSAHYATWAKGRFTISKTSTTVDLKITSPTTADTATYFCARGYIGSPNLWGPGTLVTVSS
VL: AVLTQTPSPVSAAVGGTVSISCQSSKSVYYNNYLSWFQQKPGQPPKQLIYLASTLASGVPSRFKGSGSGTEFTLTISDVQCADAATYYCAGGYTDSDDAFGGGTEVVVK
notes: as for B2
B13: 3B5 rabbit-human chimeric anti-CD40 antibody (antibody, V domains shown)
VH: QSVEESGGRLITPGTPLTLTCTVSGFSLSTYAVSWVRQAPGKGLEWIGIIDSGGGTAYASWVKGRFTISKTSTTVDLKITSPTTEDTATYFCARGVTFFGLWGPGTLVTVSS
VL: DIVMTQTPASVEAAVGGTVTIKCQASQSISNYLSWYQQKPGQPPKLLIYRASDLASGVPSRFKGSGSGTEFTLTISDLECADAATYYCQAYYYSGGGSYDYAFGGGTEVVVK
notes: as for B2
B14: 4A7 rabbit-human chimeric anti-CD40 antibody (antibody, V domains shown)
VH: QSVEESGGRLVTPGTPLTLTCTVSGFSLSTYAMSWVRQAPGKGLEWIGIIDGGGFAVYANWAKGRFTISKASTTVDLKLPSPTTEDTATYFCARGVTFFNLWGPGTLVTVSS
VL: B13 VL with G17D, N31S, Y32A, S34A, D53T, A55E, A90S, G95S
notes: as for B2

What follows are binders tested against CD40 on HEKBlue CD40L reporter cells (UniProt P25942 21-277, limits assumed) (assay: cell-based or functional assay).
Chain of CD40 on HEKBlue CD40L reporter cells (P25942 21-277 limits assumed): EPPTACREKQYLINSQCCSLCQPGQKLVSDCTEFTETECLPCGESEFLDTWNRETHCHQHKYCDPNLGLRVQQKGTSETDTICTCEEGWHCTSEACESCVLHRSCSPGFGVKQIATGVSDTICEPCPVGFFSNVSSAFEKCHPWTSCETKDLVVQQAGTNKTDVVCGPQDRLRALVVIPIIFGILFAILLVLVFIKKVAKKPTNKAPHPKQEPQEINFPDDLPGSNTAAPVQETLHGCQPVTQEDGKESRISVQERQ
B1 was tested, and the “IC50 (read off the curve)” value was about 0.06 µg/mL.

Each binder was assayed against T1, purified recombinant human CD40 protein (human, UniProt P25942 21-193) (assay: Octet (BLI), recombinant CD40).
T1 construct: also called recombinant CD40
T1 sequence (P25942 21-193 limits assumed): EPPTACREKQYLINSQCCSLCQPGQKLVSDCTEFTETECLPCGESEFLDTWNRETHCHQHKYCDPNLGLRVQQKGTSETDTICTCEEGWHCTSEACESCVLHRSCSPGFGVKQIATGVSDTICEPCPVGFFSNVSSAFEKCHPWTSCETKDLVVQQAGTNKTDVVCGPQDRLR
B1 gave a Kd of under 1 pM, a koff of under 1e-07 s⁻¹ and a kon of 1.06e+06 M⁻¹ s⁻¹.

The binders below were run against T1, purified recombinant human CD40 protein (assay: ELISA on coated recombinant human CD40; chimeric antibody supernatant).
Method: ELISA plate was coated with purified recombinant CD40 protein in coating buffer at lug/ml overnight. After washed for 3 times, the plate was blocked with 1% BSA, and then cell culture supernatants containing rabbit-human chimeric CD40 antibodies were added to the plate. For detection of the antibody binding to CD40 protein, goat anti-human Fc polyclonal antibody conjugated to alkaline phosphatase was used.
With B2 the OD405 was 1.62 OD405.
B3 showed an OD405 of 1.8 OD405.
B4 showed an OD405 of 1.92 OD405.
Work on B5 yielded an OD405 of 0.98 OD405.
Work on B6 yielded an OD405 of 1.39 OD405.
Binder B7 has an OD405 of 1.72 OD405.
In the case of B8, the OD405 is reported as 1.83 OD405.
In the case of B9, the OD405 is reported as 2.01 OD405.
B10 gave an OD405 of 2 OD405.
In the case of B11, the OD405 is reported as 1.84 OD405.
Binder B12 has an OD405 of 1.69 OD405.
With B13 the OD405 was 1.48 OD405.
Work on B14 yielded an OD405 of 1.65 OD405.

Each binder was assayed against T2, cell surface human CD40 on HEK-CD40 cells (human, UniProt P25942 21-277) (assay: flow cytometry, titration on HEK-CD40 cells, CD40 MFI, anti-human IgG secondary antibody).
T2 construct: whole, on cells; also called cell surface CD40
T2 sequence (P25942 21-277): as the sequence (P25942 21-277 limits assumed) above
Method: HEK-CD40 were collected and plated at 10⁵ cells per well in 96-well round bottom plate in FACS buffer. Serial dilutions of antibodies (Control IgG1, CP870,893, APX005m and 3B5) in 100 ul were incubated with the HEK-CD40 cells for 60 min at 4° C. Cells were washed 3 times with 200 ul FACS buffer. Cell-bound antibodies were detected using an APC-conjugated secondary antibody specific to human IgG heavy and light chain. After incubating 30 min with secondary antibody, HEK-CD40 cells were washed 3 times with 200 ul FACS buffer and resuspended in 200 ul FACS with 1 ug/ml DAPI. Flow cytometric analyses were performed using Attune N×T flow cytometer (ThermoFisher Scientific, Waltham, Mass.). After gating on FCS-SSC parameters to exclude debris and selectively gating DAPI negative cells on DAPI-SSC parameters to exclude dead cells, the geometric mean fluorescence intensity (MFI) of antibodies was determined using FlowJo v10 (BD Bioscience, San Jose, Calif.). Dose-response curves were generated and EC50s calculated using GraphPad Prism 8 (GraphPad Software, San Diego, Calif.).
In the case of B1, the EC50 is reported as 0.69 µg/mL.
